Results from PMC4390835.
Like-named read-outs stand apart in the source and are kept apart here.

What was measured:
[1] = target: Lsp1, C-terminally tagged with mVenus or mCerulean (S. cerevisiae) (UniProt Q12230); assay: FRET or BRET
[2] = target: Lsp1, C-terminally tagged with mVenus or mCerulean (S. cerevisiae) (UniProt Q12230); assay: FRET or BRET; remark: listed apart in the source
[3] = target: Lsp1, C-terminally tagged with mVenus or mCerulean (S. cerevisiae) (UniProt Q12230); assay: FRET or BRET; remark: listed apart in the source
[4] = target: Pil1, C-terminally tagged with mVenus or mCerulean (S. cerevisiae) (UniProt P53252); assay: FRET or BRET
[5] = target: Pil1, C-terminally tagged with mVenus or mCerulean (S. cerevisiae) (UniProt P53252); assay: FRET or BRET; remark: listed apart in the source
[6] = target: Pil1, C-terminally tagged with mVenus or mCerulean (S. cerevisiae) (UniProt P53252); assay: FRET or BRET; remark: listed apart in the source
[7] = target: Pil1, C-terminally tagged with mVenus or mCerulean (S. cerevisiae) (UniProt P53252); assay: number and brightness
[8] = target: Pil1, C-terminally tagged with mVenus or mCerulean (S. cerevisiae) (UniProt P53252); assay: FRET or BRET; remark: listed apart in the source
[9] = target: Pil1, C-terminally tagged with mVenus or mCerulean (S. cerevisiae) (UniProt P53252); assay: FRET or BRET; remark: listed apart in the source
[10] = target: Pil1, C-terminally tagged with mVenus or mCerulean (S. cerevisiae) (UniProt P53252); assay: FRET or BRET; remark: listed apart in the source
[11] = target: Pil1, C-terminally tagged with mVenus or mCerulean (S. cerevisiae) (UniProt P53252); assay: FRET or BRET; remark: listed apart in the source

| Substance | FRET efficiency [1] | FRET efficiency [2] | FRET efficiency [3] | FRET efficiency [4] | FRET efficiency [5] | FRET efficiency [6] | percent of Pil1-mVenus that corresponds to oligomers [7] | FRET efficiency [8] | FRET efficiency [9] | FRET efficiency [10] | FRET efficiency [11] |
| --- | --- | --- | --- | --- | --- | --- | --- | --- | --- | --- | --- |
| Lsp1, C-terminally tagged with mVenus or mCerulean (from UniProt Q12230 1-341) (natural protein) | 20% | 30% | 20% | – | – | – | – | – | – | – | – |
| Pil1, C-terminally tagged with mVenus or mCerulean (from UniProt P53252 1-339) (natural protein) | – | – | – | 28% | 10% | 20% | 8% | 15% | 10% | 5% | 18% |
